Laboratory results taken from the supplement of paper PMC10567573.

B1: INTS3 (parent)
chain: KKREFRFHPIKETVVEEPVDITPY

Variants of: B1
Experiment: protein stability index of a GFP-peptide fusion (GPS, HEK-293T) (PSI 1-6); higher = more stable
Conditions: c terminus: a fixed tail appended
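Also: lentivirally expressed fusions sorted by FACS into six bins by GFP to DsRed ratio, PSI derived from sequencing read proportions per bin multiplied by bin number.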

Variant	protein stability index
KKREFRWHPIKETVVEEPVDITPY [F7W]	3.25
KKREERFHPIKETVVEEPVDITPY [F5E]	4.8
KKREFRFHPIKETVVEEPVDTTPY [I21T]	1.95
KKREFRFHRIKETVVEEPVDITPY [P9R]	2.3
KKREFLFHPIKETVVEEPVDITPY [R6L]	4.15
KKREFRFHPIKETSVEEPVDITPY [V14S]	3.05
KKREFRFHYIKETVVEEPVDITPY [P9Y]	1.99
KKREFRFHPIKETVVMEPVDITPY [E16M]	1.41
KKREFRFHPIKETVGEEPVDITPY [V15G]	1.49
KKREFRFHPSKETVVEEPVDITPY [I10S]	1.64
KKREFRFHPIKETVVSEPVDITPY [E16S]	1.82
YKREFRFHPIKETVVEEPVDITPY [K1Y]	2.12
KKREFRFHPIKEVVVEEPVDITPY [T13V]	2.12
KKREFRFHPIKETVVKEPVDITPY [E16K]	2.5
KKGEFRFHPIKETVVEEPVDITPY [R3G]	1.72
KKREFRFHPIKETVVEEPVDIQPY [T22Q]	1.93
KKRQFRFHPIKETVVEEPVDITPY [E4Q]	2.36
KKREFRFHPIKETVVEEPVLITPY [D20L]	1.56
KKRHFRFHPIKETVVEEPVDITPY [E4H]	1.9
KKREFPFHPIKETVVEEPVDITPY [R6P]	4.38
KKREFRFHPIKEEVVEEPVDITPY [T13E]	2.39
IKREFRFHPIKETVVEEPVDITPY [K1I]	1.65
KKREFRFHPIKETVVREPVDITPY [E16R]	2.73
KKREFRFHPIKETVVEEPVDITPH [Y24H]	1.99

Variant	protein stability index
KKREFDFHPIKETVVEEPVDITPY [R6D]	4.24
KKREFRFHPIKETVVEEPVDATPY [I21A]	1.76
KKREFRFGPIKETVVEEPVDITPY [H8G]	3.93
KKREFRMHPIKETVVEEPVDITPY [F7M]	4.4
KKREFRFHLIKETVVEEPVDITPY [P9L]	1.9
KKREYRFHPIKETVVEEPVDITPY [F5Y]	3.92
KKRETRFHPIKETVVEEPVDITPY [F5T]	4.52
KKRELRFHPIKETVVEEPVDITPY [F5L]	4.01
KKREFRFHPIKETVVEEAVDITPY [P18A]	1.87
KKREFRFHPIKETVVEEPVDNTPY [I21N]	2
KKREFRFHPIKETVVEEPFDITPY [V19F]	1.77
KKREFRFHPIKETVVTEPVDITPY [E16T]	2.16
KKREFRFHWIKETVVEEPVDITPY [P9W]	1.81
KKREFRFHPIKETVVEEPVDITPF [Y24F]	2.18
KKREFNFHPIKETVVEEPVDITPY [R6N]	4.25
KKREFRFHPIAETVVEEPVDITPY [K11A]	1.82
KKREFRFHPIFETVVEEPVDITPY [K11F]	2.56
KKREFRFHPIKITVVEEPVDITPY [E12I]	2.61
KKREFRFQPIKETVVEEPVDITPY [H8Q]	3.45
KKREFRFHPIKETVVEEPVDITWY [P23W]	2.28
KKREFRFHPIKETVVEEPVDITRY [P23R]	1.55
KKREFRFHPIKETVVEEPVDITVY [P23V]	1.44
KKREFRFHPIKETVPEEPVDITPY [V15P]	2.13
DKREFRFHPIKETVVEEPVDITPY [K1D]	2.01

Variant	protein stability index
KKREFRFHPIKETVVEEPVDITPQ [Y24Q]	2.04
KKREFRFHPIKATVVEEPVDITPY [E12A]	1.97
KKREFRFHPIKETVVEEPVDITSY [P23S]	1.61
KKREFMFHPIKETVVEEPVDITPY [R6M]	4.02
KKRYFRFHPIKETVVEEPVDITPY [E4Y]	1.81
KKREFRFHPIKETVVEECVDITPY [P18C]	1.86
KKREFRFTPIKETVVEEPVDITPY [H8T]	3.34
KKREFRFHVIKETVVEEPVDITPY [P9V]	2.63
KKREFRFHPIKETVVEEPVVITPY [D20V]	1.65
KKREFRFHPIKETVVEEPVDITNY [P23N]	1.84
KKREFRFHPIKETVVEEPVMITPY [D20M]	1.96
KKREFRFHPIKETVVEEPVDITPD [Y24D]	2.44
KKREIRFHPIKETVVEEPVDITPY [F5I]	4.06
NKREFRFHPIKETVVEEPVDITPY [K1N]	1.94
KKREFRDHPIKETVVEEPVDITPY [F7D]	4.43
KKREGRFHPIKETVVEEPVDITPY [F5G]	4.34
KKREFRFHPIKETVVEAPVDITPY [E17A]	1.79
KKREFRFHDIKETVVEEPVDITPY [P9D]	3.8
KKREFRFHPIKETVVEEPVDITPR [Y24R]	1.47
KKREFRFHPIKEPVVEEPVDITPY [T13P]	1.75
KKREFRFHPIKETVVEEPVFITPY [D20F]	2.48
KKREFRFHPIKCTVVEEPVDITPY [E12C]	2.05
KKREPRFHPIKETVVEEPVDITPY [F5P]	4.18
KKREFRFHPIKETVVEEPVDITCY [P23C]	2.08

Variant	protein stability index
KKREFRFHPIKETVVEEPDDITPY [V19D]	2.13
KKREFRFHPIKETVVEEPVDITPL [Y24L]	2.17
SKREFRFHPIKETVVEEPVDITPY [K1S]	1.8
KKFEFRFHPIKETVVEEPVDITPY [R3F]	1.62
KKREFRFHPIKETVVEEPVDICPY [T22C]	1.82
KKREFRFHPIKETVHEEPVDITPY [V15H]	1.82
KKREFRFHPGKETVVEEPVDITPY [I10G]	2.3
KKREFRFHPIKETVVEEPNDITPY [V19N]	2.02
KKREFRFHPIKETVVEEPSDITPY [V19S]	2.25
KKREFRFHGIKETVVEEPVDITPY [P9G]	2.5
KCREFRFHPIKETVVEEPVDITPY [K2C]	1.9
KKREFRFHPIKETVSEEPVDITPY [V15S]	1.58
KMREFRFHPIKETVVEEPVDITPY [K2M]	2.2
MKREFRFHPIKETVVEEPVDITPY [K1M]	1.96
KKREFRFHPIKETVVEEHVDITPY [P18H]	1.74
KKREFRFHPIKETVVEMPVDITPY [E17M]	1.95
KKREFRFHPIKETVVEEPVSITPY [D20S]	1.04
KKREFRFHPIKETVVEEPVDITQY [P23Q]	1.88
CKREFRFHPIKETVVEEPVDITPY [K1C]	1.81
WKREFRFHPIKETVVEEPVDITPY [K1W]	2.1
KKREFRFHPIKETVVEEPVDSTPY [I21S]	1.21
KKREFRFHPIKETVVEEPVDITEY [P23E]	3.24
